“Also recorded” adds a separate entry of the source.
Assays:
[1] = wild type protein; in words; cited from earlier work
colicin E7 = target: T1, colicin E7 (Escherichia coli, UniProt Q47112); conditions: in words; listed as Im7; cited from earlier work
T1 sequence (Q47112 1-576): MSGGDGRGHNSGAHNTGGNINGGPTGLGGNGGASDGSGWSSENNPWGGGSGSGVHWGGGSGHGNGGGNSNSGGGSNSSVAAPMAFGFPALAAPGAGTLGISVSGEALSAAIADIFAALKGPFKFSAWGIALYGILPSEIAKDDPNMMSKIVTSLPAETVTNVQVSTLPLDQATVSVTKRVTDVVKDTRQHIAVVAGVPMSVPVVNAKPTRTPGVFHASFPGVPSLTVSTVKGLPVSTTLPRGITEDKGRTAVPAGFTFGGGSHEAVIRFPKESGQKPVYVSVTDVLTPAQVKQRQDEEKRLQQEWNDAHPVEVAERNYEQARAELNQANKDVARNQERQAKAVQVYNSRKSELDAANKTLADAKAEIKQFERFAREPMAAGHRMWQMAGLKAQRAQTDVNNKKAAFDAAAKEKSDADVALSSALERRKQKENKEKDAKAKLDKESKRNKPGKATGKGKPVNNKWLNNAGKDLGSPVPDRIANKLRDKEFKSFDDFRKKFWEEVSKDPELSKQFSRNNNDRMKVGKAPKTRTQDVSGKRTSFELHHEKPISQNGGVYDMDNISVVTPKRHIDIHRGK

[2] = Equilibrium unfolding experiments (urea denaturation, folding free energy); format: physicochemical
Description: Proteins were dissolved to a concentration of approximately 100 μM in 50 mM Tris-Cl buffer at pH 7.5, containing 400 mM Na2SO4. Substocks of each mutant were made up in the same buffer containing 0, 2, 4, 6 and 8 M urea. These substocks were titrated into a black polypropylene 384 well microtitre plate (Greiner) to create eight replicates of a urea titration from 0 to 8 M urea in steps of 0.2 M urea, using a Hamilton Microlab Star robot. The plates were briefly centrifuged and incubated at 37° C. for one hour to allow the unfolding reaction to come to equilibrium. The tryptophan fluorescence of each sample was measured using a PerkinElmer EnVision platereader. The excitation wavelength was 280 nm and emission was measured using a 340-350 nm filter. Data were normalized and processed using Igor Pro (Wavemetrics). The entire dataset was fitted globally to a two-state equilibrium unfolding equation and the ΔG values for each Im7 variant were compared to that of the wildtype protein under identical conditions. ΔΔGUN=ΔGUN(mutant)−ΔGUN(wildtype)

B1: G-CSF: granulocyte-colony stimulating factor, sold under the trademark names Neopogen and Neulasta (protein, UniProt P09919 31-207, looked up)
Granulocyte …: TPLGPASSLPQSFLLKCLEQVRKIQGDGAALQEKLVSECATYKLCHPEELVLLGHSLGIPWAPLSSCPSQALQLAGCLSQLHSGLFLYQGLLQALEGISPELGPTLDTLQLDVADFATTIWQQMEELGMAPALQPTQGAMPAFASAFQRRAGGVLVASHLQSFLEVSYRVLRHLAQP
For B1, the tendency to aggregate [1] is given as “high tendency to aggregate”.

B2: Wildtype Im7: small helical protein that confers immunity to bacterial colicin E7 (protein)
chain: MELKNSISDYTEAEFVQLLKEIEKENVAATDDVLDVLLEHFVKITEHPDGTDLIYYPSDNRDDSPEGIVKEIKEWRAANGKPGFKQG
In the case of B2, the “affinity for colicin E7” value (colicin E7) is listed as “binds very tightly; also recorded: picomolar affinity”.

B3: N26K: Im7 variant more stable than Im7 wt, in Kan55-Im7 (protein)
chain: MELKNSISDYTEAEFVQLLKEIEKEKVAATDDVLDVLLEHFVKITEHPDGTDLIYYPSDNRDDSPEGIVKEIKEWRAANGKPGFKQG
For B3, the “stability of Im7 variant relative to Im7 wt” value [2] was “more stable”.
